Sequences and labels used below:
B1: Ab225 (antibody, human IgG4, V domains shown)
VH: QVQLKESGPGLVQPSQTLSLTCTVSGFSLTSYHVSWVRQSPGKGLEWMGIIWTGGSTAYNSLLKSRLSISRDTSKSQVFLKMNSLQTEDTATYYCARRGAYPFYFDYWGQGVMVTVSS
VL: EIVLTQSPTTMAASPGEKVTITCRASSSVRSMYWYQQKSGASPKPWIYETSKLTSGVPDRFSGSGSGTSYSFTISSMGTEDAGTYYCHQWTTTPYTFGAGTKLELK
notes: also called Anti-PAR-2 antibody # 225
B2: Ab245 (antibody, human IgG4, V domains shown)
VH: B1 VH with S19F, S40P, S65P, S68T, Q86R, A100L
VL: EVVLTQSPTTMAASPGEKVTITCRATSSVSHMYWYQQKSGASPKPWIYETSKLASGVPDRFRGSGSGTSYSFTISSMETEDVATYYCHQWSSFPYTFGPGTKLELK
notes: also called Anti-PAR-2 antibody # 245
B3: Ab261 (antibody, human IgG4, V domains shown)
VH: EVQLVESGGGLVQPGRSLKLSCVASGFTFNNYWMTWIRQAPGKGLEWVASITNTGGNTYYPDSVKGRFTISRDNAKSTLYLQMNSLRSEDTATYYCTRDRIIRGADWFAYWGQGTLVTVSS
VL: DIQMTQSPHSLSASLGETVSIECLASEGISNYLAWFQQKPGKSPQLLIYYASSLQDGVPSRFSGSGSGTQYSLKISNMQPEDEGVYYCQQGYKYPWTFGGGTKLELK
notes: also called Anti-PAR-2 antibody # 261
B4: Ab228 (antibody, human IgG4, V domains shown)
VH: B3 VH with A24V, T54S, A105S, D106T
VL: B3 VL with F36Y, Q89H
B5: Ab380 (antibody, human IgG4, V domains shown)
VH: B3 VH with S25T, T54S, N74D, D99V, I101V, I102Y, R103Y, A105S, D106N, A109V
VL: B3 VL
notes: also called Anti-PAR-2 antibody # 380
B6: Ab227 (antibody, human IgG4, V domains shown)
VH: B3 VH with T54S, N57R, I70V, N74S, A105S, D106T, A109T
VL: B3 VL with K103E
notes: also called Anti-PAR-2 antibody # 227
B7: Ab435 (antibody, human IgG4, V domains shown)
VH: B3 VH with A24G, K43W, N57R, I101V, I102Y, R103Y, A105S, D106N, A109V
VL: B3 VL with F36Y, V85I, G91H
B8: Ab234 (antibody, human IgG4, V domains shown)
VH: EVQLVETGGGLVQPGRSLKLSCVASGFTFNNYWLYWIRQAPGKGLEWVSSINNDGGGTYYPDSVKGRFTVSRDNAENTVYLQMNSLRSEDTATYYCARDRAFIRGRFAYWGQGTLVTVSS
VL: EIVLTQSPTTMAASPGEKVTLTCRASSSVIYMHWYQQRSGASPKLWIYETSKLASGVPNRFGGSGSGTSYSLTINSMETEDAATYYCQQGSYYPWTFGGGTKLELK
notes: also called Anti-PAR-2 antibody # 234
B9: Ab192 (antibody, human IgG4, V domains shown)
VH: QVQLQQPGTELVKPGASVKLSCKASGYTFTSYWMHWIKQRPGQGLEWIGNINPSSGGTNYNEKFKTKATLTVDKSSSTAYMQLSSLTSEDSAVYYCAGEAYSNYVAWFAYWGQGTLVTVSS
VL: ENVLTQSPAIMSASLGEKVTMSCRASSSVNYMYWYQQKSDASPKLWIYYTSNLAPGVPARFSGSGSGTSYSLTISSMEGEDAATYYCQQFTTSPYTFGGGTKLEIK
notes: also called Anti-PAR-2 antibody # 192
B10: Ab209 (antibody, human IgG4, V domains shown)
VH: B9 VH with S55T, G57S, Y60F, E62V, A79T, S84N
VL: B9 VL with Q36R, A59T
notes: also called Anti-PAR-2 antibody # 209
B11: Ab140 (antibody, human IgG4, V domains shown)
VH: EVQLVESGGGLVQPKGSLKLSCAASGFTFNSYAMHWVRQAPGKGLEWVACIRSKSSYYATYYADSVKDRFTISRHDSQSMLYLQMNNLKTEDTAMYYCVREDYYGSSYDYWGQGTTLTVSS
VL: QIVLTQSPAIMSASLGERVTMTCTASSSVSSSYLHWYQQKPGSSPKLWIYATSNLASGVPARFSGSGSGTSYSLTISSMEAEDAATYYCHQYHRSPLTFGAGTKLELK
notes: also called Anti-PAR-2 antibody # 140
B12: Ab189 (antibody, human IgG4, V domains shown)
VH: B11 VH with S31T, C50R, S55T, S56T, Y57N, H75D, M85I, N86S, Y108L
VL: B11 VL with S30I, Y50F, A51S, S78T
notes: also called Anti-PAR-2 antibody # 189
B13: Ab201 (antibody, human IgG4, V domains shown)
VH: QVQLQQSGPELVKPGASVKISCKASGFSFTSFYIHWVNQRPGQGLEWIGWIYPGSGNTLYNEKFKGKATLTADTSSSTAYIHLSSLTSEDSAVYYCTRGPLFYGSSHWYFDVWGMGTTVTVSS
VL: EVQITQSPSYLAASPGETITINCRASKSISKYLAWYQEKPGKTNKLLIYSGSTLQSGIPSRFSGSGSGTDFTLTISSLEPEDFAMYYCQQHNKYPLTFGAGTRLELK
B14: P24E743 (antibody, human IgG4 S228P, kappa, V domains shown)
VH: QVQLVQSGAEVKKPGSSVKVSCKASGFSLSSYAISWVRQAPGQGLEWMGVIWGNGNTYYAQKFQGRVTITADESTSTAYMELSSLRSEDTAVYYCARWRGYKDYPFDYWGQGTLVTVSS
VL: EIVLTQSPATLSLSPGERATLSCKASQNVYKWLDWYQQKPGQAPRLLIYNAYSLATGIPARFSGSGSGRDFTLTISSLEPEDFAVYYCQQHGSGWTFGGGTKVEIKR
B15: P24E883 (antibody, human IgG4 S228P, kappa, V domains shown)
VH: B14 VH
VL: B14 VL with G92N
B16: P24E794 (antibody, human IgG4 S228P, kappa, V domains shown)
VH: B14 VH
VL: B14 VL with K24R, L54R, G92N
B17: P24E914 (antibody, human IgG4 S228P, kappa, V domains shown)
VH: B14 VH with R99K
VL: B14 VL with K24R, V29I, G92N
B18: P24E889 (antibody, human IgG4 S228P, kappa, V domains shown)
VH: B14 VH
VL: B14 VL with K24R, V29I, G92N

Substitutions are numbered along the chain they refer to.

The target of the first assay is T1, human PAR-2 (human, UniProt P55085 26-397).
T1 sequence: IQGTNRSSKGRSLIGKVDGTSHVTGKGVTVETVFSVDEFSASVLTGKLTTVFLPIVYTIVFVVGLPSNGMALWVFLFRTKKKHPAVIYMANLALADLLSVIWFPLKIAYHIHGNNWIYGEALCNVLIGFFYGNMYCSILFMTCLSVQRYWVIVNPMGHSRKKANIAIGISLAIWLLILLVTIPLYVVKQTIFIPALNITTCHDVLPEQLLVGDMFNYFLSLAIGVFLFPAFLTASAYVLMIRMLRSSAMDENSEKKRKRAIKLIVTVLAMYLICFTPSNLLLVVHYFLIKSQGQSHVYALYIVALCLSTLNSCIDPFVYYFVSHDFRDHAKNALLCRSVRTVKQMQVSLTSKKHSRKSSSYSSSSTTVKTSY
The experiment in a line: cell-based or functional assay.
As to B1, the “IC50, PAR-2 β-arrestin cell assay” value worked out at 3.4 nM.
As for B2, the “IC50, PAR-2 β-arrestin cell assay” value was 3.8 nM.
On the same count and under the same terms, then B3, with 19.9 nM; and B4, with 33.3 nM.
For B5, the “IC50, PAR-2 β-arrestin cell assay” value was found to be 57.1 nM.
Consider B6, for which the “IC50, PAR-2 β-arrestin cell assay” value was 10.2 nM.
Regarding B7, the “IC50, PAR-2 β-arrestin cell assay” value stood at 53.8 nM.
In the case of B8, the “IC50, PAR-2 β-arrestin cell assay” value came out at 4.8 nM.
In the case of B9, the “IC50, PAR-2 β-arrestin cell assay” value came out at 100 nM.
With B10, the “IC50, PAR-2 β-arrestin cell assay” value turned out to be 65.5 nM.
For the molecule B11, the “IC50, PAR-2 β-arrestin cell assay” value stood at 20.1 nM.
Still for that read-out and setting: then B12, with 123 nM.
On the same count and under the same terms, then B13, with 10.7 nM.

The next assay has as its target T1, human PAR-2. The experiment in a line: cell-based or functional assay. The source holds these as a separate data set.
In the case of B14, the “PAR-2 β-arrestin cell based assay IC50, 2 µM SLIGKV” value was 1.51 nM.
In the case of B15, the “PAR-2 β-arrestin cell based assay IC50, 2 µM SLIGKV” value came to 1.21 nM.
Consider B16, for which the “PAR-2 β-arrestin cell based assay IC50, 2 µM SLIGKV” value worked out at 0.89 nM.
Take B17: the “PAR-2 β-arrestin cell based assay IC50, 2 µM SLIGKV” value was determined as 0.94 nM.
On to B18, for which the “PAR-2 β-arrestin cell based assay IC50, 2 µM SLIGKV” value was 0.97 nM.

In a further assay the target is T2, human PAR-1 (human, UniProt P25116 22-425).
T2 construct: also called huPAR-1
T2 sequence: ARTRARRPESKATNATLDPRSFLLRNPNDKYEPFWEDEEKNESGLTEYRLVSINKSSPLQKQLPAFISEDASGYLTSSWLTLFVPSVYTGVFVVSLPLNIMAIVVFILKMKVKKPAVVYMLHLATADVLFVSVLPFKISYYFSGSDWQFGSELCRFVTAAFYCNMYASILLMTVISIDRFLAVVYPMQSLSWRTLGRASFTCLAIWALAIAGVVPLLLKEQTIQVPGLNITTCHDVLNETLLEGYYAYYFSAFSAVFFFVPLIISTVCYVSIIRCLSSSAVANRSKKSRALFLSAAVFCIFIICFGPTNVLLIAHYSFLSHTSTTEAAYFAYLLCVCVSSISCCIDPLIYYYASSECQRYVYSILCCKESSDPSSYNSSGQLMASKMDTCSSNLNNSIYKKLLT
Description: flow cytometry, transfected Expi293F cells. As to the method:
Paired heavy and light chains encoded by these sequence pairs were expressed as a full length human IgG4 isotype antibodies and assessed for PAR-2 binding and selectivity by flow cytometry. […] Cells were used for flow cytometric analysis 36-48 hours post-transfection. Use of Nt-PAR-2 as a target allowed antibodies which bound the N-terminal residues of PAR-2 (which comprise the protease-cleavage sites on PAR-2) to be distinguished from antibodies which bound other extracellular sites on PAR-2, such as the PAR-2-activating ligand-binding site(s). Expi293F cells, transiently expressing one of each of the different target proteins were labelled with different intensities of a single fluorphor Encoder dye (Intellicyt) for 10 mins at either 1 in 250 dilution for high intensity and/or 1 in 1500 dilution for moderate intensity, enabling simultaneous analysis of multiple cell populations. After washing the cells were then mixed in an equal ratio with the unlabeled cell type and analyzed for antibody binding.
The cells were plated in 96 well plates at 2×10⁵ cells/well. Following a wash step using Phosphate buffered saline (PBS), the primary antibody (anti-PAR-2 antibody) was added at a concentration of 10 μg/mL in 50 μL of FACS buffer (0.5% w/v BSA in PBS) to each well and incubated for 10-15 mins. Following a wash step, secondary antibody (anti-human Fc-FITC) was added to the wells at 1:200 dilution in 50 μL for 10-15 mins. Following a washing step, the cells were re-suspended in fluorescence-activated cell sorting (FACS) buffer. The flow cytometry analysis was performed on an Intellicyt iQue screener. Gates were drawn around the different intensities of encoder dye-positive cells and these populations were analyzed separately from each other and the unlabeled cells for binding by the primary antibody.
On the technique in general: A flow cytometer gives signals particle by particle.
B1: the binding result is given as “no binding (tested: 10 µg/mL)”.
The same measure, in the same setting: then B2, with “no binding (tested: 10 µg/mL)”.
For B3, the binding result is “no binding (tested: 10 µg/mL)”.
Still for that read-out and setting: next, B4: “no binding (tested: 10 µg/mL)”; B5: “no binding (tested: 10 µg/mL)”; B6: “no binding (tested: 10 µg/mL)”.
For the molecule B7, the binding result is “no binding (tested: 10 µg/mL)”.
Consider B8, for which the binding result is recorded as “no binding (tested: 10 µg/mL)”.
For B9, the binding result was “no binding (tested: 10 µg/mL)”.
As to B10, the binding result was “no binding (tested: 10 µg/mL)”.
On to B11, for which the binding result was “no binding (tested: 10 µg/mL)”.
With B12, the binding result is given as “no binding (tested: 10 µg/mL)”.
The same measure, in the same setting: then B13, with “no binding (tested: 10 µg/mL)”.

(Values after patent US20220056125A1 (CEPHALON, published 2022).)
